In patent US20200087297A1 (Genentech, published 2020):
Where “and” joins values, the source holds several entries; their conditions need not be identical. Identical values can stand only once. Like-named read-outs stand apart in the source and are kept apart here.

T1: NaPi2b (SLC34A2, type II sodium-dependent phosphate transporter 3b) (human, UniProt O95436 1-690)
T1 sequence (looked up): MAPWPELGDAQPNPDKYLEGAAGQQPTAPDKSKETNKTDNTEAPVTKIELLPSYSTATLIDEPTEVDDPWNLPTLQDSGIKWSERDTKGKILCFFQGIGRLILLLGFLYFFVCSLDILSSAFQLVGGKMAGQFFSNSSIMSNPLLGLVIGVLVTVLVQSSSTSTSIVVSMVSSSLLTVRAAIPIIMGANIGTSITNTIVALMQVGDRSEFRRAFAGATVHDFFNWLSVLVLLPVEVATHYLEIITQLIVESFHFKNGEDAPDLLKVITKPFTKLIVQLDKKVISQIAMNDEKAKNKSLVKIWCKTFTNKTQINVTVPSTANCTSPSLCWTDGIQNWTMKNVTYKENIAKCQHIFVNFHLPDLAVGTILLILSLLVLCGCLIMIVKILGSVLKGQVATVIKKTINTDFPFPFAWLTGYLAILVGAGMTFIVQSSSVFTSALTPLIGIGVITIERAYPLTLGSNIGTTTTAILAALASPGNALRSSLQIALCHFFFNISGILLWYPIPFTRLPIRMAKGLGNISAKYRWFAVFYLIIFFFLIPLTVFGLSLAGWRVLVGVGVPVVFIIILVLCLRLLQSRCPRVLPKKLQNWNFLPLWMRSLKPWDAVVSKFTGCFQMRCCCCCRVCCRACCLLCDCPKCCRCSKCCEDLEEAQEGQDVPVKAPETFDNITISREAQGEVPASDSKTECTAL

B1: Anti-Napi2b 10H1.11.4B LC K149C MC-Sq-Cit-PAB-Tubulysin M (antibody, DAR 1, V domains shown)
VH: EVQLVESGGGLVQPGGSLRLSCAASGFSFSDFAMSWVRQAPGKGLEWVATIGRVAFHTYYPDSMKGRFTISRDNSKNTLYLQMNSLRAEDTAVYYCARHRGFDVGHFDFWGQGTLVTVSS
VL: DIQMTQSPSSLSASVGDRVTITCRSSETLVHSSGNTYLEWYQQKPGKAPKLLIYRVSNRFSGVPSRFSGSGSGTDFTLTISSLQPEDFATYYCFQGSFNPLTFGQGTKVEIKR
B2: Anti-Napi2b 10H1.11.4B LC K149C MC-Sq-Cit-PAB Dolastatin 10 (antibody, DAR 1, V domains shown)
VH: EVQLVESGGGLVQPGGSLRLSCAASGFSFSDFAMSWVRQAPGKGLEWVATIGRVAFHTYYPDSMKGRFTISRDNSKNTLYLQMNSLRAEDTAVYYCARHRGFDVGHFDFWGQGTLVTVSS
VL: DIQMTQSPSSLSASVGDRVTITCRSSETLVHSSGNTYLEWYQQKPGKAPKLLIYRVSNRFSGVPSRFSGSGSGTDFTLTISSLQPEDFATYYCFQGSFNPLTFGQGTKVEIKR

Key:
[1] = molecular target: T1, NaPi2b (SLC34A2, type II …); test: cell-based or functional assay
[2] = molecular target: T1, NaPi2b (SLC34A2, type II …); test: cell-based or functional assay; remark: listed apart in the source

Binder	IGROV-1 IC50 (EdU Prolif assay) [1]	OVCAR-3x2.1 IC50 (EdU Prolif assay) [1]	IGROV-1 IC50 (EdU Prolif assay) [2]	OVCAR-3x2.1 IC50 (EdU Prolif assay) [2]
B1	2.07 nM and 310 ng/mL	151 ng/mL and 1 nM		
B2			3.19 nM and 478 ng/mL	1.52 nM and 228 ng/mL
